Tests used:
[1] = target: GSK3β (human, UniProt P49841 1-420, phosphorylated on the activation loop Tyr216); assay: BLI
[2] = target: T1, phospho-Ser45-β-catenin (pS45-β-catenin) (human, UniProt P35222 1-781, phosphoserine at 45); assay: BLI
T1 sequence: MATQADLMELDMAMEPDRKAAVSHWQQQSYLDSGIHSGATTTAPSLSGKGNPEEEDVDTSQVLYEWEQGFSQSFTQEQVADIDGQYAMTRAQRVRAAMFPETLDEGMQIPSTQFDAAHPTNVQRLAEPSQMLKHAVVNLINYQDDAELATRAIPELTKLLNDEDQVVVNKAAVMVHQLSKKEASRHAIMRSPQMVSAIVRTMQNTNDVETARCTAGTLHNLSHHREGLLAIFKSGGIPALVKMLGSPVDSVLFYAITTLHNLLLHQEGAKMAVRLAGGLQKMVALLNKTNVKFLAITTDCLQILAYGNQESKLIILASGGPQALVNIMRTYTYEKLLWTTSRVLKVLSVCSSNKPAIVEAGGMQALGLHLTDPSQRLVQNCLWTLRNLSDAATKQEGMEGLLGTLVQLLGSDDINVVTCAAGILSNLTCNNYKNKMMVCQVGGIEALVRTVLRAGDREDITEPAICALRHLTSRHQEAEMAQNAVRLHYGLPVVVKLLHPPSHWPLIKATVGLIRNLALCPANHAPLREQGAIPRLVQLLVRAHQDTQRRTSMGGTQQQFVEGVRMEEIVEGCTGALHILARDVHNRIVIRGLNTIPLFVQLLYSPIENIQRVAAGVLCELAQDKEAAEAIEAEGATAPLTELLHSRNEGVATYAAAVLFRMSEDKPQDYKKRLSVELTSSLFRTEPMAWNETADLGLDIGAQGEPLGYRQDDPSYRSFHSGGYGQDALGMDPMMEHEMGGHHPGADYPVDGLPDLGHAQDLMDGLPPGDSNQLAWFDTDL

GSK3β, sequence (P49841 whole entry): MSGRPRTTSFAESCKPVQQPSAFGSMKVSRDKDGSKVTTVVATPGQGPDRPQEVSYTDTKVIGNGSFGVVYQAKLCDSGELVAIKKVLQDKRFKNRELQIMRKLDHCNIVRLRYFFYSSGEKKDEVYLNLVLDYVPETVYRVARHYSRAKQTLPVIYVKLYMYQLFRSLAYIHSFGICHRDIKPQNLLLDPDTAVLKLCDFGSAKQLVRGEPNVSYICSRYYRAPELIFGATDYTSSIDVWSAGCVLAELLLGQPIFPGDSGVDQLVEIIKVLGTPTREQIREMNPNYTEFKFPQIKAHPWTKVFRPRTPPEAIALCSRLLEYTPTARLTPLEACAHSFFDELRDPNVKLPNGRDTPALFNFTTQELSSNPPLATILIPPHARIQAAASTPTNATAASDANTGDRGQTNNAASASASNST

- Kd [1]: 16 nM
- Kd [2]: 4000 nM
B1: Axin_(384-518) (miniAxin) (domain or fragment)
chain: EPQKFAEELIHRLEAVQRTREAEEKLEERLKRVRMEEEGEDGDPSSGPPGPCHKLPPAPAWHHFPPRCVDMGCAGLRDAHEENPESILDEHVQRVLRTPGRQSPGPGHRSPDSGHVAKMPVALGGAASGHGKHVP
